We go through nine molecules from patent publication US20210030857A1 (NGM BIOPHARMACEUTICALS, published 2021).

Where a chain is given by its changes, count along the chain named.

For assay [1], the target named is T1, cynomolgus monkey beta klotho protein (soluble, used in Biacore) (cynomolgus monkey (Macaca fascicularis), UniProt Q86Z14 53-996 (human entry), limits assumed).
T1 construct: Protein in solution; also called Cyno KLB; cyKLB
T1 chain: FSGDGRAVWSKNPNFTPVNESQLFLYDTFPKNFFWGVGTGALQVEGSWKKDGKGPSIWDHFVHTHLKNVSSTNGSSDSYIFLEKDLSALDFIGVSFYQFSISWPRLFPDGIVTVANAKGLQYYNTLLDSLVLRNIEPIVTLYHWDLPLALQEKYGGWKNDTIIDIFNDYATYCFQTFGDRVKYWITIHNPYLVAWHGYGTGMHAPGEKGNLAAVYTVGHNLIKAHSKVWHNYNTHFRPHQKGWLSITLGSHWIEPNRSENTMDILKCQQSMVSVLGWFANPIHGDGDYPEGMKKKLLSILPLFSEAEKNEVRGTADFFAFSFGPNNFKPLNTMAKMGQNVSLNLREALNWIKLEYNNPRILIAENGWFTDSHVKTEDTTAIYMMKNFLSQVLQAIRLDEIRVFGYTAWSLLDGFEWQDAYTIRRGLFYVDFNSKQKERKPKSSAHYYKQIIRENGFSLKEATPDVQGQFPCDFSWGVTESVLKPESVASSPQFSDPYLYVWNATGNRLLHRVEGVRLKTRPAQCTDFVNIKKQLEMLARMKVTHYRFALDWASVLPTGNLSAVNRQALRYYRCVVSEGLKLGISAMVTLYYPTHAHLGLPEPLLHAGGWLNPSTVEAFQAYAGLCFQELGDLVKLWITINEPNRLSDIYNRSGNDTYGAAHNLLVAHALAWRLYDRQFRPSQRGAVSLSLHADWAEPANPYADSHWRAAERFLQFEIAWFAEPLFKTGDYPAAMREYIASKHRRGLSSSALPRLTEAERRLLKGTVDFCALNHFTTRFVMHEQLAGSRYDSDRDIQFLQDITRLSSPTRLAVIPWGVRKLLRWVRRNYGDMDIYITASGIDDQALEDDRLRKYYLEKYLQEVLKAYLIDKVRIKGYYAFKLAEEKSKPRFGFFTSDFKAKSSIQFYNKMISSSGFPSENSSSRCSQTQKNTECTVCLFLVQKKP
The assay can be described thus: Biacore SPR, antibody captured on anti-mouse Fc, KLB as analyte (1.56-25 nM), 25 C. The procedure:
(§1) Binding affinity measurements were also made in additional Biacore based assays. For example, equilibrium dissociation constant (KD) measurements were carried out with purified antibodies to evaluate their binding to human beta klotho and cyno beta klotho. As mentioned above, anti-mouse Fc antibody (Sigma-Aldrich, St. Louis, Mo.) was immobilized on all four flow cells of a CM5 chip using amine coupling reagents (GE Healthcare LifeSciences, Piscataway, N.J.). Purified antibodies were captured (˜100 RUs) on flow cells 2, 3 and 4 using flow cell 1 as a reference. This was followed by injection of different concentrations of human or cyno beta klotho (1.56 nM to 25 nM, two-fold dilutions in PBS-P buffer) at a flow rate of 70 μL/min and the binding kinetics were evaluated at 25° C.

Assay [2] addresses T2, human beta klotho protein (soluble, used in Biacore) (human, UniProt Q86Z14 53-997, limits assumed).
T2 construct: also called HuKLB; huKLB
T2 sequence: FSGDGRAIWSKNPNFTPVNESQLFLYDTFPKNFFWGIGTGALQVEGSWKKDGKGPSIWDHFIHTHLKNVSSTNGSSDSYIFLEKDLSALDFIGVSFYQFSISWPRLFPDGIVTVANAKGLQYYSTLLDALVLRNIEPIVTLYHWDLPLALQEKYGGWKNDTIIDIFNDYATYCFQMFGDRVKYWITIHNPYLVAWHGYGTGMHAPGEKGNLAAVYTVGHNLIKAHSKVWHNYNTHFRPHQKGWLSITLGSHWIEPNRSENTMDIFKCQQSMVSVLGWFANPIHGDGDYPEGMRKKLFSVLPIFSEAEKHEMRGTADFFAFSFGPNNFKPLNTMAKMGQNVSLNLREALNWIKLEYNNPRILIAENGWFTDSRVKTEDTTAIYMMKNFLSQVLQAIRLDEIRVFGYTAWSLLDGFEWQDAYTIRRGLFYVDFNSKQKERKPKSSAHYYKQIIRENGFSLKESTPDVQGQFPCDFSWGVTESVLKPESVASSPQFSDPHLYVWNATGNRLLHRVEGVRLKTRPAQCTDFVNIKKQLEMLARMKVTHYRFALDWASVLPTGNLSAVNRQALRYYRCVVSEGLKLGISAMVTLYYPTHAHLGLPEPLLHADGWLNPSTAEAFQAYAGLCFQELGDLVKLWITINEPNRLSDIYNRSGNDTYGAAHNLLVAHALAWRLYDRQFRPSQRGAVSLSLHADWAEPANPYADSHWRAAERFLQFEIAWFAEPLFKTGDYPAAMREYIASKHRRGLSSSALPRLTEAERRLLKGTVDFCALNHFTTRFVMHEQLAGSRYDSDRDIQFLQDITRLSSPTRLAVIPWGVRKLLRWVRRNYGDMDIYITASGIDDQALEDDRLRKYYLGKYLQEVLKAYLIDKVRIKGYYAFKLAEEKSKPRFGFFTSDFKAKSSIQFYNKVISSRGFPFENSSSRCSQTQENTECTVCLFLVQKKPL
The description is as above. As for the experimental part:
as §1

Assay [3] concerns the target human beta klotho / human FGFR3c on L6 cells (human, UniProt Q86Z14 1-1044; P22607 23-806). The assay can be described thus: cell-based or functional assay.
For assay [4], the target named is human beta klotho / human FGFR1c receptor complex on cells (human, UniProt Q86Z14 1-1044; P11362 22-822). The assay can be described thus: cell-based or functional assay.
Chain of human beta klotho / human FGFR1c receptor complex on cells (P11362 22-822 limits assumed, one chain of several): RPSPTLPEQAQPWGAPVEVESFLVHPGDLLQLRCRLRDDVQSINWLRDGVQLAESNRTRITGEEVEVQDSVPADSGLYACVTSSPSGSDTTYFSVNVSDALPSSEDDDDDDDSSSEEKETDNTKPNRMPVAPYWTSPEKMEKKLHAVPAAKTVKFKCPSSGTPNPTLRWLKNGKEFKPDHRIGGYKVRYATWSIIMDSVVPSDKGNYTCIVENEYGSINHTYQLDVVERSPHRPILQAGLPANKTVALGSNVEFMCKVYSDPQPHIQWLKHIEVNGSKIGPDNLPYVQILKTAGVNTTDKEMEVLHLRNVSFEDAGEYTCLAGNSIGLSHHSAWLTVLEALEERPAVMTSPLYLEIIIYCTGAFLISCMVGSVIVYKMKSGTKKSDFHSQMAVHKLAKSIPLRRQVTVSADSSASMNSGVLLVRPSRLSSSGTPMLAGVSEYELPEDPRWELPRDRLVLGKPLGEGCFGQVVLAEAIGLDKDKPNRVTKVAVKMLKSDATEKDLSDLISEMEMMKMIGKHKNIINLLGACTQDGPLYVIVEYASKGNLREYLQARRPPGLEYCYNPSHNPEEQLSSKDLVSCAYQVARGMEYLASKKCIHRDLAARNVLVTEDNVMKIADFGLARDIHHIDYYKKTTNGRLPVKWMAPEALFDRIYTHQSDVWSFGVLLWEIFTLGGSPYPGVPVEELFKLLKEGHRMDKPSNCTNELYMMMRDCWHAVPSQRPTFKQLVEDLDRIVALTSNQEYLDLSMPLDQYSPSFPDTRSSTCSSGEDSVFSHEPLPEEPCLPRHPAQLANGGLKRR
For assay [5], the target named is human beta klotho / human FGFR4 on L6 cells (human, UniProt Q86Z14 1-1044; P22455 22-802). In words: cell-based or functional assay.
Chain of human beta klotho / human FGFR4 on L6 cells (P22455 22-802, one chain of several): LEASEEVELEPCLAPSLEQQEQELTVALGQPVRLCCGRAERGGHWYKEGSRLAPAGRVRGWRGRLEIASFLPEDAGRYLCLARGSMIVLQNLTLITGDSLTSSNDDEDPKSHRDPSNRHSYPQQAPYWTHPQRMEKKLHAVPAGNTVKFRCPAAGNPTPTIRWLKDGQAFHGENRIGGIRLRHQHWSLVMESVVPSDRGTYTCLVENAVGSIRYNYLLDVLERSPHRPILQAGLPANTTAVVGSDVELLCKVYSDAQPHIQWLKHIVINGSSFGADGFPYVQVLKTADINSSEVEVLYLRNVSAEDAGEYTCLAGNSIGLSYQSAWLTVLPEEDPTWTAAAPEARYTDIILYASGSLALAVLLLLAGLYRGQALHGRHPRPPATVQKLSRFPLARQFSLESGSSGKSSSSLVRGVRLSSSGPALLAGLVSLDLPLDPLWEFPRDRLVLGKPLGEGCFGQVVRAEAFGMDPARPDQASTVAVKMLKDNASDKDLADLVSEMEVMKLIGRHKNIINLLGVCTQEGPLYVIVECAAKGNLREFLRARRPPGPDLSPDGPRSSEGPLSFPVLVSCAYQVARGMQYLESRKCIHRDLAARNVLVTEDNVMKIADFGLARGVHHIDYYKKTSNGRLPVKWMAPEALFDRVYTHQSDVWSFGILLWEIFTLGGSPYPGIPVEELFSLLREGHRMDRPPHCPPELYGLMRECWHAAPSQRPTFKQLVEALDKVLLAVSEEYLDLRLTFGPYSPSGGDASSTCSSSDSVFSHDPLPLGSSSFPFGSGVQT

Chain of human beta klotho / human FGFR3c on L6 cells (P22607 23-806, one chain of several): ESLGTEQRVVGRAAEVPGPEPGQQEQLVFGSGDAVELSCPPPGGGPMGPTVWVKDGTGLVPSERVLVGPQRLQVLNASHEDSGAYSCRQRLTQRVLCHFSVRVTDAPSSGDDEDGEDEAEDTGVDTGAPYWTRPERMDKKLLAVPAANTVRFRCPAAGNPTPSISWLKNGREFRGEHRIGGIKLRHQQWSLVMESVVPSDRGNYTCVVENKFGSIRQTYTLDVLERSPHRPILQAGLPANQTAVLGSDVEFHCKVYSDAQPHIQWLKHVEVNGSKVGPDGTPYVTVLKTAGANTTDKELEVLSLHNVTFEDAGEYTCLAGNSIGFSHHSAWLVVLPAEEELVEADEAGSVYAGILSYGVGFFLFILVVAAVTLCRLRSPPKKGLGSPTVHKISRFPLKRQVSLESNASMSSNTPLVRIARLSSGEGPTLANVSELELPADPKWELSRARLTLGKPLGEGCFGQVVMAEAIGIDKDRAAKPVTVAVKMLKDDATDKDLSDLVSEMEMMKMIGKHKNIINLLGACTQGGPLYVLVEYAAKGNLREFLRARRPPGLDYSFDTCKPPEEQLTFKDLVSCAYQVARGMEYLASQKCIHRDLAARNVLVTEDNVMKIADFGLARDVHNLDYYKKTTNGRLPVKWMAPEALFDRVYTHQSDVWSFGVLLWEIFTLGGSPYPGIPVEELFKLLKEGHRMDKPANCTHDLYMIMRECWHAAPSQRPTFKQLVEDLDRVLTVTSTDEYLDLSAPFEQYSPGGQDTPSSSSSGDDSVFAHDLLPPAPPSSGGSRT

B1: antibody 1C17 (antibody, V domains shown)
VH: QVQLQESGPGLVKPSQSLSLTCSVTGYSITSGYYWNWIRQFPGNKLEWMGYINYDGNSNYTPSLKNRISITRDTSKNQFFLKLNSVTPEDTATYYCARKGAYYSNYDSFDVWGTGTTVTVSS
VL: DIKMTQSPSSMYASLGERVTITCKASQDINSYLSWVQQKPGKSPKTLIYRANRLVDGVPSRFSGSGSGQDYSLTISSLEYEDMGIYYCLQYDEFPFTFGSGTKLEIK
notes: Murine monoclonal antibody
Broadly, the Kd is the free concentration of one partner at which half of the binding sites on the other are occupied at equilibrium, for simple one-to-one binding. On to B1, for which the Kd was found to be 3.1 nM in assay [1] and 0.89 nM in assay [2].

B2: antibody 3N20 (antibody, V domains shown)
VH: QVQLQESGAELARPGASVKLSCKVSGYIFTNYGISWVKQRTGQGLEWIGEIYPRSGNTYYNEKFKGKATLTADMSSSTAYMDLRSLTSEDSAVYFCARHWDGVLDYFDYWGQGTSLTVSS
VL: DIVMTQSPSSLSVSAGEKVTMSCKSSQSLLNSGNQKNYLAWYQQKPGQPPKLLIYGASTRESGVPDRFTGSGSGTDFTLTISSVQAEDLAVYYCLNDHSYPFTFGAGTKLELK
notes: Murine monoclonal antibody
As for B2, the Kd in assay [1] was found to be 3.52 nM; in assay [2], 3.3 nM.

B3: antibody 5F7 (antibody, V domains shown)
VH: QVQPQESGPELVKPGALVKISCKASGYTFTRYDINWVKQRPGQGLEWIGWIYPGDISTKYNEKFKGKATLTADKSSSTAYMQLNSLTSENSAVYFCARSDYYGSRSFVYWGQGTLVTVSA
VL: DIVLTQSPASLAVSLGQRATISCRASKSVSTSGYSYMHWYQQKPGQPPKLLIYLASNLESGVPARFSGSGSGTDFTLNIHPVEEEDAATYYCQHSRELPYTFGGGTKVEIK
notes: Murine monoclonal antibody
On to B3, for which the results for the dissociation constant (Kd) in assay [1] and in assay [2] were 2.5 nM and 1.7 nM, respectively.

B4: antibody 5H23 (antibody, V domains shown)
VH: B3 VH with P4L, E6Q, R31S, I56G, S77R, N84S, V108A
VL: B3 VL with S35V, Y40N, N57Y, T89I, E97D, P99T, Y100F, T101P, V108L
notes: Murine monoclonal antibody from hybridoma; also called 5H23-Alexa647 (labelled form)
Regarding B4, the “L6 huKLB/R3c reporter assay EC50” value in assay [3] was greater than 67 nM. The “L6 huKLB/R1c reporter assay EC50” value in assay [4] turned out to be 0.28 nM. In addition, in assay [5], the “L6 huKLB/R4 reporter assay EC50” value is greater than 67 nM. Further, the Kd in assay [1] is 0.72 nM.

B5: antibody 4P5 (antibody, V domains shown)
VH: B3 VH with P4L, E6Q, Q39K, I56D, N84S
VL: B3 VL with V3L, S69R, Q93H, R96G, V108L
notes: Murine monoclonal antibody
Consider B5, for which the “L6 huKLB/R3c reporter assay EC50” value in assay [3] is greater than 67 nM. Moreover, the “L6 huKLB/R1c reporter assay EC50” value in assay [4] came out at 0.39 nM. Besides, in assay [5], the “L6 huKLB/R4 reporter assay EC50” value was greater than 67 nM. The Kd in assay [1] was 0.44 nM; in assay [2], 0.26 nM.

B6: antibody 5C23 (antibody, V domains shown)
VH: B3 VH with Q39K, I56G, K65E, N84S
VL: B3 VL with A9D, A12T, V108L
notes: Murine monoclonal antibody
Consider B6, for which the Kd was 2.4 nM in assay [1] and 1.2 nM in assay [2].

B7: antibody 1D19 (antibody, V domains shown)
VH: B3 VH with V37M, I56S, Y60F, K63N, G66D, N84S, A92T, V108T
VL: B3 VL with V108L
notes: Murine monoclonal antibody
With B7, the dissociation constant Kd in assay [1] was determined as 2.9 nM; in assay [2], 1.25 nM.

B8: antibody 3L3 (antibody, V domains shown)
VH: B3 VH with A16T, R31S, I56G, T58P, N61D, N84S
VL: B3 VL with M37V, S69R, R96G, V108L
notes: Murine monoclonal antibody
For B8, the Kd is 2.2 nM in assay [1] and 1.14 nM in assay [2].

B9: antibody 2L12 (antibody, V domains shown)
VH: B3 VH with P4L, E6Q, Q39K, I56D, N84S
VL: B3 VL with A12P, M37L, R96G, V108L
notes: Murine monoclonal antibody
Consider B9, for which the “L6 huKLB/R3c reporter assay EC50” value in assay [3] was greater than 67 nM. Further, the “L6 huKLB/R1c reporter assay EC50” value in assay [4] was 4.65 nM. The “L6 huKLB/R4 reporter assay EC50” value in assay [5] is greater than 67 nM. Also, the Kd in assay [1] was 1.42 nM; in assay [2], 0.22 nM.
